Results reported in IntAct's records for PubMed 14517307.

Molecular target: nat1_yeast NAT1 (UniProt P12945)
Sequence (P12945 whole entry): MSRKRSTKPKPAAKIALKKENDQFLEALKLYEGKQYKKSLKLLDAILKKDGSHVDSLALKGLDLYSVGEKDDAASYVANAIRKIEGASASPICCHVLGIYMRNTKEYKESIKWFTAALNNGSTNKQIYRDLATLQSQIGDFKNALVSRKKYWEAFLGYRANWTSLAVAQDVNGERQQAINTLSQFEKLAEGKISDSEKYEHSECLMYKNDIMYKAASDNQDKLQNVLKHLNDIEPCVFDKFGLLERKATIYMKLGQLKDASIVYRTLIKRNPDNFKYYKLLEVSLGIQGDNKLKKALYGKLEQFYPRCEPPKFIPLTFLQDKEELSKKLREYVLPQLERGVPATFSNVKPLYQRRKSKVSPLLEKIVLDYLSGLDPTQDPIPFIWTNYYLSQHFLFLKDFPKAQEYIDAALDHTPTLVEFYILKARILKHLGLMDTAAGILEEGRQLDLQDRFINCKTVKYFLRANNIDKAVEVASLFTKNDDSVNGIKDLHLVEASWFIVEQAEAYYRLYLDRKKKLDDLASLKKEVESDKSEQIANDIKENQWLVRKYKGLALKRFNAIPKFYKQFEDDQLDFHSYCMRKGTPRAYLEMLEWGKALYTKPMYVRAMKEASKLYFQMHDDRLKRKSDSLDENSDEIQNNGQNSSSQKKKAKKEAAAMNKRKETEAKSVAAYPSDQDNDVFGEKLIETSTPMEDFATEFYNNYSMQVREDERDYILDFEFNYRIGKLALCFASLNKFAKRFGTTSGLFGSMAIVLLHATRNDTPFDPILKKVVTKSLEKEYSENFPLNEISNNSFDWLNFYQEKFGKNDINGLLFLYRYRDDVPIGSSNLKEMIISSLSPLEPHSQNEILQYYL

Chain of Large ribosomal subunit protein uL4A (Saccharomyces cerevisiae), P10664 S2K (P10664 whole entry S2K): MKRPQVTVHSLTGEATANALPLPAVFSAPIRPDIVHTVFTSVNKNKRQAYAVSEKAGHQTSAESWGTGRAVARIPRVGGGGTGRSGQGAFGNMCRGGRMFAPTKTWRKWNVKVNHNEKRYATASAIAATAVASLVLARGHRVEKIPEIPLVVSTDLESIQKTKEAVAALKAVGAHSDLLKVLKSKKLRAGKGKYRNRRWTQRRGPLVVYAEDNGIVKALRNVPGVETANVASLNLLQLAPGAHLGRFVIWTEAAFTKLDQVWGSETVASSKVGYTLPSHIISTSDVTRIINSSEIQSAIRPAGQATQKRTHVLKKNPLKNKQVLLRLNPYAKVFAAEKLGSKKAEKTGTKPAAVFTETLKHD

## Large ribosomal subunit protein uL4A (Saccharomyces cerevisiae), P10664 S2K
  effect of a mutation on the interaction: increasing interaction
